The values that follow come from patent publication US12679878B2, “CRF2 receptor agonists and their use in therapy” (SANOFI, priority 2020, dated 2026).

Starred links: 1 amine or outer side, 2 acyl side, 3 side chain; linkers in the order of their positions; H or OH if unused. Non-standard residues stand in square brackets, D forms with d. Groups on a side chain read outwards from the residue. No end group written: not given here. *: point of attachment. C18 diacid = O=C(O)CCCCCCCCCCCCCCCCC(=O)*; γGlu = O=C(O)[C@H](CCC(=O)[*:2])N[*:1]; Palmitoyl = CCCCCCCCCCCCCCCC(=O)*; AEEA = NCCOCCOCC(=O)O; Aib = CC(C)(N)C(=O)O

In the assay the target is human corticotropin-releasing factor 2α (CRF2 α receptor) (human), Q13324. The assay is described as follows: cell-based or functional assay.
human corticotropin-releasing factor 2α (CRF2 α receptor) (human), Q13324, sequence (Q13324 20-411): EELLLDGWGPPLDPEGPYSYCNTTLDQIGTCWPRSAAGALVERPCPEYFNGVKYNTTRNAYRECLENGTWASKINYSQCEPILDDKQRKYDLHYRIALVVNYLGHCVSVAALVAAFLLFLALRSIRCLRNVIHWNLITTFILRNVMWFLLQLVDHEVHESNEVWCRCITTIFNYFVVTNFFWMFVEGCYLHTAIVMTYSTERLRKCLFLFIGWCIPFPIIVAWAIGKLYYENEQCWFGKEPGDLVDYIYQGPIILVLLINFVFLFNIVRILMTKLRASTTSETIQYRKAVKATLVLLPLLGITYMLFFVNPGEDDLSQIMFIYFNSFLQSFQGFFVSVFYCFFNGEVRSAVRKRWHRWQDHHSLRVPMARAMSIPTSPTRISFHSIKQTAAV

B1: SEQ ID NO: 47 (peptide)
peptide: IVLSLD[dV]PTKLK([AEEA-AEEA-γGlu-C18 diacid])KKLLKQERKR[Aib]EREKAEKAARILERV-NH2
In turn, B1 had an EC50 [nM], 0% HSA of 6.85 nM.

B2: SEQ ID NO: 46 (peptide)
peptide: IVLSLDVPIKLK([AEEA-AEEA-γGlu-C18 diacid])QILLEQAKQK[Aib]LRAQAETNVRILERV-NH2
modifications: N-terminus assumed
SMILES: CC[C@H](C)[C@H](N)C(=O)N[C@H](C(=O)N[C@@H](CC(C)C)C(=O)N[C@@H](CO)C(=O)N[C@@H](CC(C)C)C(=O)N[C@@H](CC(=O)O)C(=O)N[C@H](C(=O)N1CCC[C@H]1C(=O)N[C@H](C(=O)N[C@@H](CCCCN)C(=O)N[C@@H](CC(C)C)C(=O)N[C@@H](CCCCNC(=O)COCCOCCNC(=O)COCCOCCNC(=O)CC[C@H](NC(=O)CCCCCCCCCCCCCCCCC(=O)O)C(=O)O)C(=O)N[C@@H](CCC(N)=O)C(=O)N[C@H](C(=O)N[C@@H](CC(C)C)C(=O)N[C@@H](CC(C)C)C(=O)N[C@@H](CCC(=O)O)C(=O)N[C@@H](CCC(N)=O)C(=O)N[C@@H](C)C(=O)N[C@@H](CCCCN)C(=O)N[C@@H](CCC(N)=O)C(=O)N[C@@H](CCCCN)C(=O)NC(C)(C)C(=O)N[C@@H](CC(C)C)C(=O)N[C@@H](CCCNC(=N)N)C(=O)N[C@@H](C)C(=O)N[C@@H](CCC(N)=O)C(=O)N[C@@H](C)C(=O)N[C@@H](CCC(=O)O)C(=O)N[C@H](C(=O)N[C@@H](CC(N)=O)C(=O)N[C@H](C(=O)N[C@@H](CCCNC(=N)N)C(=O)N[C@H](C(=O)N[C@@H](CC(C)C)C(=O)N[C@@H](CCC(=O)O)C(=O)N[C@@H](CCCNC(=N)N)C(=O)N[C@H](C(N)=O)C(C)C)[C@@H](C)CC)C(C)C)[C@@H](C)O)[C@@H](C)CC)[C@@H](C)CC)C(C)C)C(C)C
For B2, the EC50 [nM], 0% HSA was 0.52 nM.

B3: SEQ ID NO: 42 (peptide)
peptide: IVLSLDVPIKLK([AEEA-AEEA-γGlu-C18 diacid])QILLEQERQR[Aib]ERQQAEKNVRILERV-NH2
modifications: N-terminus assumed
SMILES: CC[C@H](C)[C@H](N)C(=O)N[C@H](C(=O)N[C@@H](CC(C)C)C(=O)N[C@@H](CO)C(=O)N[C@@H](CC(C)C)C(=O)N[C@@H](CC(=O)O)C(=O)N[C@H](C(=O)N1CCC[C@H]1C(=O)N[C@H](C(=O)N[C@@H](CCCCN)C(=O)N[C@@H](CC(C)C)C(=O)N[C@@H](CCCCNC(=O)COCCOCCNC(=O)COCCOCCNC(=O)CC[C@H](NC(=O)CCCCCCCCCCCCCCCCC(=O)O)C(=O)O)C(=O)N[C@@H](CCC(N)=O)C(=O)N[C@H](C(=O)N[C@@H](CC(C)C)C(=O)N[C@@H](CC(C)C)C(=O)N[C@@H](CCC(=O)O)C(=O)N[C@@H](CCC(N)=O)C(=O)N[C@@H](CCC(=O)O)C(=O)N[C@@H](CCCNC(=N)N)C(=O)N[C@@H](CCC(N)=O)C(=O)N[C@@H](CCCNC(=N)N)C(=O)NC(C)(C)C(=O)N[C@@H](CCC(=O)O)C(=O)N[C@@H](CCCNC(=N)N)C(=O)N[C@@H](CCC(N)=O)C(=O)N[C@@H](CCC(N)=O)C(=O)N[C@@H](C)C(=O)N[C@@H](CCC(=O)O)C(=O)N[C@@H](CCCCN)C(=O)N[C@@H](CC(N)=O)C(=O)N[C@H](C(=O)N[C@@H](CCCNC(=N)N)C(=O)N[C@H](C(=O)N[C@@H](CC(C)C)C(=O)N[C@@H](CCC(=O)O)C(=O)N[C@@H](CCCNC(=N)N)C(=O)N[C@H](C(N)=O)C(C)C)[C@@H](C)CC)C(C)C)[C@@H](C)CC)[C@@H](C)CC)C(C)C)C(C)C
Molecule B3 showed an EC50 [nM], 0% HSA of 15.4 nM.

B4: SEQ ID NO: 43 (peptide)
peptide: IVLSLDVPIKLK([AEEA-AEEA-γGlu-C18 diacid])QILLEQAKQKKLRAQAETNVRILERV-NH2
modifications: N-terminus assumed
SMILES: CC[C@H](C)[C@H](N)C(=O)N[C@H](C(=O)N[C@@H](CC(C)C)C(=O)N[C@@H](CO)C(=O)N[C@@H](CC(C)C)C(=O)N[C@@H](CC(=O)O)C(=O)N[C@H](C(=O)N1CCC[C@H]1C(=O)N[C@H](C(=O)N[C@@H](CCCCN)C(=O)N[C@@H](CC(C)C)C(=O)N[C@@H](CCCCNC(=O)COCCOCCNC(=O)COCCOCCNC(=O)CC[C@H](NC(=O)CCCCCCCCCCCCCCCCC(=O)O)C(=O)O)C(=O)N[C@@H](CCC(N)=O)C(=O)N[C@H](C(=O)N[C@@H](CC(C)C)C(=O)N[C@@H](CC(C)C)C(=O)N[C@@H](CCC(=O)O)C(=O)N[C@@H](CCC(N)=O)C(=O)N[C@@H](C)C(=O)N[C@@H](CCCCN)C(=O)N[C@@H](CCC(N)=O)C(=O)N[C@@H](CCCCN)C(=O)N[C@@H](CCCCN)C(=O)N[C@@H](CC(C)C)C(=O)N[C@@H](CCCNC(=N)N)C(=O)N[C@@H](C)C(=O)N[C@@H](CCC(N)=O)C(=O)N[C@@H](C)C(=O)N[C@@H](CCC(=O)O)C(=O)N[C@H](C(=O)N[C@@H](CC(N)=O)C(=O)N[C@H](C(=O)N[C@@H](CCCNC(=N)N)C(=O)N[C@H](C(=O)N[C@@H](CC(C)C)C(=O)N[C@@H](CCC(=O)O)C(=O)N[C@@H](CCCNC(=N)N)C(=O)N[C@H](C(N)=O)C(C)C)[C@@H](C)CC)C(C)C)[C@@H](C)O)[C@@H](C)CC)[C@@H](C)CC)C(C)C)C(C)C
Regarding B4, the EC50 [nM], 0% HSA was determined as 1.9 nM.

B5: SEQ ID NO: 45 (peptide)
peptide: IVLSLDVPIKLK([AEEA-AEEA-γGlu-C18 diacid])QILLEQAKQK[Aib]LKAQAETNVRILERV-NH2
modifications: N-terminus assumed
SMILES: CC[C@H](C)[C@H](N)C(=O)N[C@H](C(=O)N[C@@H](CC(C)C)C(=O)N[C@@H](CO)C(=O)N[C@@H](CC(C)C)C(=O)N[C@@H](CC(=O)O)C(=O)N[C@H](C(=O)N1CCC[C@H]1C(=O)N[C@H](C(=O)N[C@@H](CCCCN)C(=O)N[C@@H](CC(C)C)C(=O)N[C@@H](CCCCNC(=O)COCCOCCNC(=O)COCCOCCNC(=O)CC[C@H](NC(=O)CCCCCCCCCCCCCCCCC(=O)O)C(=O)O)C(=O)N[C@@H](CCC(N)=O)C(=O)N[C@H](C(=O)N[C@@H](CC(C)C)C(=O)N[C@@H](CC(C)C)C(=O)N[C@@H](CCC(=O)O)C(=O)N[C@@H](CCC(N)=O)C(=O)N[C@@H](C)C(=O)N[C@@H](CCCCN)C(=O)N[C@@H](CCC(N)=O)C(=O)N[C@@H](CCCCN)C(=O)NC(C)(C)C(=O)N[C@@H](CC(C)C)C(=O)N[C@@H](CCCCN)C(=O)N[C@@H](C)C(=O)N[C@@H](CCC(N)=O)C(=O)N[C@@H](C)C(=O)N[C@@H](CCC(=O)O)C(=O)N[C@H](C(=O)N[C@@H](CC(N)=O)C(=O)N[C@H](C(=O)N[C@@H](CCCNC(=N)N)C(=O)N[C@H](C(=O)N[C@@H](CC(C)C)C(=O)N[C@@H](CCC(=O)O)C(=O)N[C@@H](CCCNC(=N)N)C(=O)N[C@H](C(N)=O)C(C)C)[C@@H](C)CC)C(C)C)[C@@H](C)O)[C@@H](C)CC)[C@@H](C)CC)C(C)C)C(C)C
B5 yielded an EC50 [nM], 0% HSA of 3.77 nM.

B6: SEQ ID NO: 2 (peptide)
peptide: IVLSLDVPIKLK([γGlu-Palmitoyl])KILLEQEKQEKEKQQAETNAQILAQV-NH2
modifications: N-terminus assumed
SMILES: CCCCCCCCCCCCCCCC(=O)N[C@@H](CCC(=O)NCCCC[C@H](NC(=O)[C@H](CC(C)C)NC(=O)[C@H](CCCCN)NC(=O)[C@@H](NC(=O)[C@@H]1CCCN1C(=O)[C@@H](NC(=O)[C@H](CC(=O)O)NC(=O)[C@H](CC(C)C)NC(=O)[C@H](CO)NC(=O)[C@H](CC(C)C)NC(=O)[C@@H](NC(=O)[C@@H](N)[C@@H](C)CC)C(C)C)C(C)C)[C@@H](C)CC)C(=O)N[C@@H](CCCCN)C(=O)N[C@H](C(=O)N[C@@H](CC(C)C)C(=O)N[C@@H](CC(C)C)C(=O)N[C@@H](CCC(=O)O)C(=O)N[C@@H](CCC(N)=O)C(=O)N[C@@H](CCC(=O)O)C(=O)N[C@@H](CCCCN)C(=O)N[C@@H](CCC(N)=O)C(=O)N[C@@H](CCC(=O)O)C(=O)N[C@@H](CCCCN)C(=O)N[C@@H](CCC(=O)O)C(=O)N[C@@H](CCCCN)C(=O)N[C@@H](CCC(N)=O)C(=O)N[C@@H](CCC(N)=O)C(=O)N[C@@H](C)C(=O)N[C@@H](CCC(=O)O)C(=O)N[C@H](C(=O)N[C@@H](CC(N)=O)C(=O)N[C@@H](C)C(=O)N[C@@H](CCC(N)=O)C(=O)N[C@H](C(=O)N[C@@H](CC(C)C)C(=O)N[C@@H](C)C(=O)N[C@@H](CCC(N)=O)C(=O)N[C@H](C(N)=O)C(C)C)[C@@H](C)CC)[C@@H](C)O)[C@@H](C)CC)C(=O)O
As to B6, the EC50 [nM], 0% HSA is 0.01 nM and the EC50 [nM], 0.1% HSA came to 0.01 nM.

B7: SEQ ID NO: 44 (peptide)
peptide: IVLSLDVPIKLK([AEEA-AEEA-γGlu-C18 diacid])QILLEQAKQKKERAQAETNVRILERV-NH2
modifications: N-terminus assumed
SMILES: CC[C@H](C)[C@H](N)C(=O)N[C@H](C(=O)N[C@@H](CC(C)C)C(=O)N[C@@H](CO)C(=O)N[C@@H](CC(C)C)C(=O)N[C@@H](CC(=O)O)C(=O)N[C@H](C(=O)N1CCC[C@H]1C(=O)N[C@H](C(=O)N[C@@H](CCCCN)C(=O)N[C@@H](CC(C)C)C(=O)N[C@@H](CCCCNC(=O)COCCOCCNC(=O)COCCOCCNC(=O)CC[C@H](NC(=O)CCCCCCCCCCCCCCCCC(=O)O)C(=O)O)C(=O)N[C@@H](CCC(N)=O)C(=O)N[C@H](C(=O)N[C@@H](CC(C)C)C(=O)N[C@@H](CC(C)C)C(=O)N[C@@H](CCC(=O)O)C(=O)N[C@@H](CCC(N)=O)C(=O)N[C@@H](C)C(=O)N[C@@H](CCCCN)C(=O)N[C@@H](CCC(N)=O)C(=O)N[C@@H](CCCCN)C(=O)N[C@@H](CCCCN)C(=O)N[C@@H](CCC(=O)O)C(=O)N[C@@H](CCCNC(=N)N)C(=O)N[C@@H](C)C(=O)N[C@@H](CCC(N)=O)C(=O)N[C@@H](C)C(=O)N[C@@H](CCC(=O)O)C(=O)N[C@H](C(=O)N[C@@H](CC(N)=O)C(=O)N[C@H](C(=O)N[C@@H](CCCNC(=N)N)C(=O)N[C@H](C(=O)N[C@@H](CC(C)C)C(=O)N[C@@H](CCC(=O)O)C(=O)N[C@@H](CCCNC(=N)N)C(=O)N[C@H](C(N)=O)C(C)C)[C@@H](C)CC)C(C)C)[C@@H](C)O)[C@@H](C)CC)[C@@H](C)CC)C(C)C)C(C)C
B7 displayed an EC50 [nM], 0% HSA of 13.7 nM.
